Tests used:
[1] = target: patched-1 of C3H10T1/2 cells (endogenous hedgehog receptor) (mouse (cell line C3H10T1/2 is stated to be mouse)) (UniProt Q61115); test: cell-based or functional assay
[2] = target: Myc-tagged patched-1 on transiently transfected human embryonic kidney 293 (EBNA-293) cells; test: FACS competition with Shh-Ig (5 nM) on 293 cells transfected with Myc-tagged patched-1
Myc-tagged patched-1 on transiently transfected human embryonic kidney 293 (EBNA-293) cells, sequence (Q61115 whole entry): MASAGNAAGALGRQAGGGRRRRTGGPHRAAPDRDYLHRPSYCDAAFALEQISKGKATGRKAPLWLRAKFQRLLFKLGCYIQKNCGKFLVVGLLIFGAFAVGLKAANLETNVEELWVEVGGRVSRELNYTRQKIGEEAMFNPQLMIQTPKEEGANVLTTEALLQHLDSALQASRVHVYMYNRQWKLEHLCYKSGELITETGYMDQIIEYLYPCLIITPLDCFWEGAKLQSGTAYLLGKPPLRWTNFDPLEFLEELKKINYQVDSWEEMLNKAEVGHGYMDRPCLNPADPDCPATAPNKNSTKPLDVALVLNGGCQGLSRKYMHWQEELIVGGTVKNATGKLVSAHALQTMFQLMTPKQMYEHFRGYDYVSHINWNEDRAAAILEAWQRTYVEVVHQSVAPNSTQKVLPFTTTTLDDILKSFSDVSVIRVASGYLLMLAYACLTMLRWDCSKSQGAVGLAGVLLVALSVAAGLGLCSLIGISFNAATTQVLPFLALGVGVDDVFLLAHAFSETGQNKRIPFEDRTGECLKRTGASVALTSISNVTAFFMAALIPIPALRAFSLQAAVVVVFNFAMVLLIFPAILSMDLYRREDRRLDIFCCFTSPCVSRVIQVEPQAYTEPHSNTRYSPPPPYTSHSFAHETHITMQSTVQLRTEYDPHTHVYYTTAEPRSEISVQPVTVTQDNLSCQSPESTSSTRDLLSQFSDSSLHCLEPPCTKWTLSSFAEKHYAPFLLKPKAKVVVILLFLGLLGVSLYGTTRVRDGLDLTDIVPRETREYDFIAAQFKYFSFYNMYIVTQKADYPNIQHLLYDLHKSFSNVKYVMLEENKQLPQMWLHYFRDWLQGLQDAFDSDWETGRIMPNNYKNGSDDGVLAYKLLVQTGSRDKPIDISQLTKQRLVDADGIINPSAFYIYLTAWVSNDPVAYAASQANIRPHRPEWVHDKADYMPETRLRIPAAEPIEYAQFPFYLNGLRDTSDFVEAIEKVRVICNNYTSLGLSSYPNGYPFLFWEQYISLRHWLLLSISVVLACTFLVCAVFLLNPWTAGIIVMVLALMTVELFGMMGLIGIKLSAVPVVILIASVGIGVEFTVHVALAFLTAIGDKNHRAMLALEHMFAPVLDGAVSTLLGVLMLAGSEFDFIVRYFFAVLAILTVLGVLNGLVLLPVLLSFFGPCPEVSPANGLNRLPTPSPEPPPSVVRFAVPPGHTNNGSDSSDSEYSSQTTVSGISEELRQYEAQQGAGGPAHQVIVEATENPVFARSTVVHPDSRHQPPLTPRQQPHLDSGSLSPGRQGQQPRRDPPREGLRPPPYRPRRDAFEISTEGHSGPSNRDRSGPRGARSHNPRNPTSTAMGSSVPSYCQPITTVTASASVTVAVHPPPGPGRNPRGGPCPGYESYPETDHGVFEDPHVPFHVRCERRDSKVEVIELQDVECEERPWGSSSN

patched-1 of C3H10T1/2 cells (endogenous hedgehog receptor) (mouse (cell line C3H10T1/2 is stated to be mouse)), sequence (Q61115 whole entry): as above

| block of AP activity induced by mature Shh in C3H10T1/2 cells, IC50 [1] | IC50 [2] | Substance | also measured |
| --- | --- | --- | --- |
| 80 nM |  | Shh (N-5), Sonic hedgehog variant lacking residues CGPGR from the N-terminus (from UniProt Q15465 29-197) (ligand) |  |
| 80 nM |  | Shh (N-9/C-3), Sonic hedgehog variant lacking … from the N-terminus and SGG from the C-terminus (from UniProt Q15465 33-194) (ligand) |  |
|  | 1 nM | Shh (C1S), Sonic hedgehog N-terminal domain with the N-terminal cysteine replaced by serine (from UniProt Q15465 25-197) (ligand) | block of AP induction by human Shh in C3H10T1/2 cells, IC50 [1]: 0.5 mM |
|  |  | Shh (N-10), Sonic hedgehog variant lacking the first 10 N-terminal amino acids (from UniProt Q15465 34-197) (ligand) | block of AP induction by mature Shh (2.5 ug/ml) in C3H10T1/2 cells, IC50 [1]: 250 nM |
|  | 3.5 nM | human mature Sonic hedgehog N-terminal domain (from UniProt Q15465 24-197) (ligand) |  |

Source: patent US8410061
